Biological target: pdli5_rat Pdlim5 (UniProt Q62920)
Sequence (Q62920 whole entry): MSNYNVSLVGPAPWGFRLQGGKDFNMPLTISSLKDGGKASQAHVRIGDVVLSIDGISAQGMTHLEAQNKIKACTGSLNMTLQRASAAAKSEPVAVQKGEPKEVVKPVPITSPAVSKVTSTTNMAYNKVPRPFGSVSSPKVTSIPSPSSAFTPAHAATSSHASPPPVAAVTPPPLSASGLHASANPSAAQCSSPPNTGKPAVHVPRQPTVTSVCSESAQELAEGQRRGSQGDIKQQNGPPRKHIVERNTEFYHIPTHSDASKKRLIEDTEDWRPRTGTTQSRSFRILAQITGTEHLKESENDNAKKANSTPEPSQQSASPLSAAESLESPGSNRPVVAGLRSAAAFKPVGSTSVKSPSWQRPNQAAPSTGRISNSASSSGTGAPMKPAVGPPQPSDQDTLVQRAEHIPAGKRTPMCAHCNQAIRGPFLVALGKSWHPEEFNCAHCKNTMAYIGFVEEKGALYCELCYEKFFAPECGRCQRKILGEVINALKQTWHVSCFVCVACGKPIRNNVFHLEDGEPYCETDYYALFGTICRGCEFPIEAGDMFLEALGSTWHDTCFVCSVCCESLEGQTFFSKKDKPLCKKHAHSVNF

Sequence of Protein kinase C beta type (Rattus norvegicus (Rat)), P68403-1 K371M (P68403 whole entry K371M): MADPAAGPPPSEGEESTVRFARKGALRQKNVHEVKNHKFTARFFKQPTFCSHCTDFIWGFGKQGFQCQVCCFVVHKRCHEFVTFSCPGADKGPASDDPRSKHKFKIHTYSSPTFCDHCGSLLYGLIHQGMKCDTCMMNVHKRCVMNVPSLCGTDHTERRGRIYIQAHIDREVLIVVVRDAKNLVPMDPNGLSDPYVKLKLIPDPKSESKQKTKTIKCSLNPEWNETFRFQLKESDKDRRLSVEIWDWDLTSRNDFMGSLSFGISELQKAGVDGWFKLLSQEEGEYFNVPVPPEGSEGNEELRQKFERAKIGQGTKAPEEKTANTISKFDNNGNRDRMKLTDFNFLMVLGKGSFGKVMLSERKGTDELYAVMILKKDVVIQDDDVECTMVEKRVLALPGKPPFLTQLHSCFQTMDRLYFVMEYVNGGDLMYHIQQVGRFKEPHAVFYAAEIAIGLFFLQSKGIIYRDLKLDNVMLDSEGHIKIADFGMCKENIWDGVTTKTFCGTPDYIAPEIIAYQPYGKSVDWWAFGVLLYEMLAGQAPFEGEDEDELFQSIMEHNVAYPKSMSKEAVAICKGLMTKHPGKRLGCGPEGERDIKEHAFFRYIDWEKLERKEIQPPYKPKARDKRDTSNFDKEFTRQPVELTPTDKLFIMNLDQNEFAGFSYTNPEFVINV

Protein kinase C beta type (Rattus norvegicus (Rat)), P68403-1 K371M
effect of a mutation on the interaction: with no effect

Reference: IntAct's records for PubMed 8940095
